According to publication PMC7295792, “Atomic-resolution mapping of transcription factor-DNA interactions by femtosecond laser crosslinking and mass spectrometry”:
Where a chain is given by its changes, count along the chain named.

How the values were obtained:
NF1 (nuclear factor 1/C) [1] = biological target: T1, NF1 (nuclear factor 1/C) (Sus scrofa (porcine), UniProt P21999 1-506); experiment: EMSA; 200 mM NaCl; protein:DNA 2.1:1 to 11:1; NF1 binding buffer: 5 mM Tris-Cl pH 8.0, 90 mM NaCl (200 mM for EMSA and Fig. 2d), 0.5 mM EDTA, 5% glycerol, 0.55 mM beta-mercaptoethanol, 1 ug BSA; TBP: same + 2 mM MgCl2; 25 min, room temperature; conditions: protein: recombinant; tags: 6xHis; chain copies: 2; label: 5'-biotin on both strands
NF1 (nuclear factor 1/C) [2] = biological target: T1, NF1 (nuclear factor 1/C); experiment: femtosecond UV laser crosslinking, western blot; 200 mM NaCl; 50 nJ pulses, total energy titrated; NF1 binding buffer: 5 mM Tris-Cl pH 8.0, 90 mM NaCl (200 mM for EMSA and Fig. 2d), 0.5 mM EDTA, 5% glycerol, 0.55 mM beta-mercaptoethanol, 1 ug BSA; TBP: same + 2 mM MgCl2; 25 min, room temperature; conditions: protein: recombinant; tags: 6xHis; chain copies: 2; label: 5'-biotin on both strands
[3] = biological target: TBP (TATA-box binding protein) (Homo sapiens, UniProt P20226 1-339); experiment: femtosecond UV laser crosslinking, western blot; 2 mM MgCl2; 50 nJ, 1.25 J; NF1 binding buffer: 5 mM Tris-Cl pH 8.0, 90 mM NaCl (200 mM for EMSA and Fig. 2d), 0.5 mM EDTA, 5% glycerol, 0.55 mM beta-mercaptoethanol, 1 ug BSA; TBP: same + 2 mM MgCl2; 25 min, room temperature; conditions: protein: commercial; label: 5'-biotin on both strands
TBP (TATA-box binding protein), sequence (P20226 whole entry): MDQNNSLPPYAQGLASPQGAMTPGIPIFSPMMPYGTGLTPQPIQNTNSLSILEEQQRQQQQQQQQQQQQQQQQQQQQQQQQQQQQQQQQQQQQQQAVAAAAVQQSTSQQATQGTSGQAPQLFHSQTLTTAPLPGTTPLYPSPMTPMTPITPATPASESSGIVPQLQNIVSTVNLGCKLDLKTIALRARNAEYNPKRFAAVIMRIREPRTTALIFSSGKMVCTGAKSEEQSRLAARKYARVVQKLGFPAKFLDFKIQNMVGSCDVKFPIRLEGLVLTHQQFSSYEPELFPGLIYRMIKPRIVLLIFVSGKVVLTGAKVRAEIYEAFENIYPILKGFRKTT

T1 sequence (P21999 whole entry): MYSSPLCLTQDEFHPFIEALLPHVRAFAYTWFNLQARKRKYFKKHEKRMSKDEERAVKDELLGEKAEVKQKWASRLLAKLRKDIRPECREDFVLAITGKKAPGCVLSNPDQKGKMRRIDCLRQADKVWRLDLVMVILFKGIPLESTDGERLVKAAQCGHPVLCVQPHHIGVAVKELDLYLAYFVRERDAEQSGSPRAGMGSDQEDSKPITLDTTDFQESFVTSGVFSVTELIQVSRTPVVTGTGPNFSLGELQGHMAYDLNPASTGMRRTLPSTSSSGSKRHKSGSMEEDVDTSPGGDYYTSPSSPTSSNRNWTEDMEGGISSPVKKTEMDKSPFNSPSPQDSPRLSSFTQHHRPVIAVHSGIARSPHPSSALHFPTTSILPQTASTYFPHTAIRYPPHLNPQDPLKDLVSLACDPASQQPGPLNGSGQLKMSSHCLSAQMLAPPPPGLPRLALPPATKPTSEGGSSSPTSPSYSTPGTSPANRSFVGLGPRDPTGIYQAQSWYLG

B1: NF1 wild-type consensus oligo (dsDNA)
DNA 1: AATTCCTTTTTTTGGATTGAAGCCAATCGGATAATGAGG
DNA 2: CCTCATTATCCGATTGGCTTCAATCCAAAAAAAGGAATT
B1: binds (NF1 (nuclear factor 1/C) [1]).

B2: NF1 wild-type oligo of Fig. 2d (dsDNA)
DNA 1: B1 DNA 1 with T3G, T13A, A31C, A33G
DNA 2: B1 DNA 2 with T7C, T9G, A27T, A37C
B2: binds (NF1 (nuclear factor 1/C) [2]).

B3: TBP wild-type AdML TATAA oligo (dsDNA)
DNA 1: CCTGAAGGGGGGCTATAAAAGGGGGTGGGGGCGCG
DNA 2: CGCGCCCCCACCCCCTTTTATAGCCCCCCTTCAGG
B3: binds [3].
